From doi:10.1101/2020.02.07.938506 (2020)

Molecular target: T1, MNV P domain (protruding domain of the capsid protein VP1 of murine norovirus) (murine norovirus (MNV), strain CW3, UniProt Q80J94 225-541)
T1 chain: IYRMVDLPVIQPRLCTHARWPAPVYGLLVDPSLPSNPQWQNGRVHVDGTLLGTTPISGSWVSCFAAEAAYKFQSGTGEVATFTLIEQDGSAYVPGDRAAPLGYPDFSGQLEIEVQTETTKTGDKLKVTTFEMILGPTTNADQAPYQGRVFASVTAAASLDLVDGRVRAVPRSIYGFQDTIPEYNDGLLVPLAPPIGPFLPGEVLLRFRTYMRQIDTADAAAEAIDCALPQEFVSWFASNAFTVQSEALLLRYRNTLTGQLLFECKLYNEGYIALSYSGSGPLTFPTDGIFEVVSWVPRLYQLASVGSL
Assay: ITC

B1: Nanobody NB-5829 (VHH)
VHH: QVQLQESGGGLVEAGGSLRLSCLGSGLTFSRYAMGWFRQAPGKEREFVASITRSGGSPNYADSVKGRFTISRDNAKNTVYLQMSSLKPEDTAVYYCAGRGSVYYDVWGQGTQVTVSS
B1 was tested, and the Kd was 1.4 nM.
